This note sets out measurements from article PMC7807878, “Development of an engineered peptide antagonist against periostin to overcome doxorubicin resistance in breast cancer” (BMC Cancer, 2021).

The target in this assay is T1, recombinant PN (rPN) (UniProt Q15063 22-836).
T1 construct: periostin (PN), recombinant, bought; also called periostin; source: bought: BioVendor (RD172045025)
T1 sequence (looked up): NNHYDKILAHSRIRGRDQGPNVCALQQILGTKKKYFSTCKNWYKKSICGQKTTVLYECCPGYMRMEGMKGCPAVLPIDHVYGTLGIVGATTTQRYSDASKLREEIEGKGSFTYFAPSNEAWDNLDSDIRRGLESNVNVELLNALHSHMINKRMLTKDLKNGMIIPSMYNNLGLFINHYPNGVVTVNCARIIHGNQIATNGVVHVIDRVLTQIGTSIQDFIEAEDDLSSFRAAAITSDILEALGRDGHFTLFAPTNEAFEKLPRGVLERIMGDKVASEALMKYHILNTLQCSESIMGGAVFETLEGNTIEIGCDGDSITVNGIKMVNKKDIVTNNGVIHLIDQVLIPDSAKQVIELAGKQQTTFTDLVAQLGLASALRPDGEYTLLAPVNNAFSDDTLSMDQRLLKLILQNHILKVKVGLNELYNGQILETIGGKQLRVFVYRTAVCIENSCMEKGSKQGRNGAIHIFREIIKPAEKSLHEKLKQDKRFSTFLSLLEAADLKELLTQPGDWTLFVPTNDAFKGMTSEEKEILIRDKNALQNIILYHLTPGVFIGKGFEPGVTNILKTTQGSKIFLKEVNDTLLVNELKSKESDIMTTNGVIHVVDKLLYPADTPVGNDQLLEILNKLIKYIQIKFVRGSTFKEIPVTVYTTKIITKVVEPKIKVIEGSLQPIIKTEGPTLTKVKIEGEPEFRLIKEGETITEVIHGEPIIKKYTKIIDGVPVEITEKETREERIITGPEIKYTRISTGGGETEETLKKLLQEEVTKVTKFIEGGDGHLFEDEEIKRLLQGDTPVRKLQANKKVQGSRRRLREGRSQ
Put plainly: ITC; MicroCal PEAQ-ITC; 700 nM rPN (or BSA) and 100 nM plain anti-PN peptide in 50 mM Tris, 150 mM NaCl, pH 7.5, in syringe and cell compartments. The note with it: both partners purified.

B1: plain anti-PN peptide (peptide)
peptide: TFATHGKHWAAP
notes: The methods mention C-terminal amidation after describing the FITC-labelled form; it is not clear whether the plain peptide is amidated too; also called candidate anti-PN peptide; source: synthetic peptide (ordered from Syn Peptide company, Shanghai)
Turning to B1, the Kd came to 1 pM.
